One series concerns the target T1, SlALR (Streptomyces lavendulae, UniProt Q65YW7).
T1 construct: gene alr; expressed in E. coli BL21(DE3), Ni-NTA purified
T1 sequence (Q65YW7 2-378): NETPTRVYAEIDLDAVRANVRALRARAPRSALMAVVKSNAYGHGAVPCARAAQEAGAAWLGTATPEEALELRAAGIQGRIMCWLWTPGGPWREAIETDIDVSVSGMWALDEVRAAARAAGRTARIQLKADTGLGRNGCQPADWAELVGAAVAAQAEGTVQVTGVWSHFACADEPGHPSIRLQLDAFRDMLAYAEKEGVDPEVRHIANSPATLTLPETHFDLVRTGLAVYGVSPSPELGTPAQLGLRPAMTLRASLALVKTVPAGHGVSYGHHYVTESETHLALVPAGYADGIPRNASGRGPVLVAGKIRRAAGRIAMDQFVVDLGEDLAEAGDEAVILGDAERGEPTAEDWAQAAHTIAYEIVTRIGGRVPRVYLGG
The series is described as follows: HPLC of released pyruvate. The format is biochemical. The conditions noted are these: beta-elimination of fluoride; 10 mM substrate, 0.02 or 0.1 μM enzyme, 50 μM pyridoxal 5'-phosphate, pH 8.0, 30 °C, 18 h.

In a further series the target is T2, NAD-PseFDH (Pseudomonas sp. 101, UniProt P33160).
T2 construct: N-terminal His6 tag followed by TEV site (His6 purified); source plasmid pZ-ASL; expressed in E. coli BL21(DE3)
T2 sequence (P33160 2-401): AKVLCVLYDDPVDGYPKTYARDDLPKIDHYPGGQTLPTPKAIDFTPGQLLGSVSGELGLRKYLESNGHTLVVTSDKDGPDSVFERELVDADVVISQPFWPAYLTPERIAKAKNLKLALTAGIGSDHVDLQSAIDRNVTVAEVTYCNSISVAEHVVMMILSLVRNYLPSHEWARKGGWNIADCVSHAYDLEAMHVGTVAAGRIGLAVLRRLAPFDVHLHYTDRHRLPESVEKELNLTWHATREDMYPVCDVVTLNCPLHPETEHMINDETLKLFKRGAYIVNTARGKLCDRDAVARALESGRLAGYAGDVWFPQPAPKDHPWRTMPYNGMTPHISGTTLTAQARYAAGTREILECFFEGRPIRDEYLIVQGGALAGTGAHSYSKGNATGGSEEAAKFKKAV
Briefly: FDH activity assay with formate. The format is biochemical.

Another series concerns CC(=O)C(=O)O. The series is described as follows: purified protein. The format is biochemical, Vibrio proteolyticus. The conditions noted are these: reductive amination, 0.5 mM NADH, 200 mM NH4Cl, 50 mM sodium phosphate pH 8.0, 30 °C.
In a further series the test system is O=C(O)C(=O)CF. The series is described as follows: purified protein. The conditions noted are these: reductive amination, 0.5 mM NADH, 200 mM NH4Cl, 50 mM sodium phosphate pH 8.0, 30 °C. Format: biochemical, Vibrio proteolyticus.
Substrate in series [1]: O=C(O)C(=O)CF
Briefly: purified protein. The conditions noted are these: reductive amination, 0.5 mM NADPH, 200 mM NH4Cl, 50 mM sodium phosphate pH 8.0, 30 °C. Format: biochemical, Symbiobacterium thermophilum.

Substrate in series [2]: CC(=O)C(=O)O
Briefly: purified protein. The format is biochemical, Symbiobacterium thermophilum. Conditions: reductive amination, 0.5 mM NADPH, 200 mM NH4Cl, 50 mM sodium phosphate pH 8.0, 30 °C.

For `N[C@@H](CF)C(=O)O` [(R)-FAla, (R)-3-fluoroalanine], the “HPLC of released pyruvate” value at SlALR was “(R)-FAla and (S)-FAla were transformed by ^SlALR into Pyr”.
On the same count and under the same terms, then `N[C@H](CF)C(=O)O` [(S)-FAla, (S)-3-fluoroalanine], with “(R)-FAla and (S)-FAla were transformed by ^SlALR into Pyr”.
`NC(=O)c1ccc[n+]([C@@H]2O[C@H](COP(=O)(O)OP(=O)(O)OC[C@H]3O[C@@H](n4cnc5c(N)ncnc54)[C@H](O)[C@@H]3O)[C@@H](O)[C@H]2O)c1` [NAD^+]: on NAD-PseFDH (formate as co-substrate), the “FDH activity assay with formate” value was “confirmed the high specificity for either cofactor of the purified NAD-^PseFDH and NADP-^PseFDH enzymes”.
Regarding `O=CO` [formate], the “FDH activity assay with formate” value on NAD-PseFDH (NAD+ as co-substrate) is “the functionality of both ^PseFDH enzymes was verified on formate”.
What is called Km is the substrate concentration at which the rate is half of its maximum. In general, Vmax refers to the rate approached at saturating substrate. Usually kcat stands for the number of substrate molecules converted per active site and unit of time at saturation. In general, kcat/Km refers to the second-order rate constant that governs catalysis at low substrate concentration. Turning to VpALD (Vibrio proteolyticus), in the series on CC(=O)C(=O)O, the Km was found to be 0.29 ± 0.04 mM, the Vmax was 247 µmol/min/mg, the kcat was 173 ± 8 s⁻¹ and the kcat/Km was 597000 M⁻¹ s⁻¹. Further, in the series with O=C(O)C(=O)CF, the Km amounted to 0.18 ± 0.02 mM, the Vmax was 11.9 µmol/min/mg, the kcat worked out at 8.3 ± 0.3 s⁻¹ and the kcat/Km came to 46100 M⁻¹ s⁻¹.

B1: StDAPDH (Symbiobacterium thermophilum IAM 14863) (protein)
chain: DKLRVAVVGYGNVGRYALEAVQAAPDMELVGVVRRKVLAATPPELTGVRVVTDISQLEGVQGALLCVPTRSVPEYAEAMLRRGIHTVDSYDIHGDLADLRRRLDPVAREHGAAAVISAGWDPGTDSIIRALLEFMAPKGITYTNFGPGMSMGHSVAVKAIPGVRDALSMTIPAGMGVHKRAVYVELEPGADFAEVERAIKTDPYFVRDETRVTQVESVSALMDVGHGVVMERKGVSGATHNQLFRFEMRINNPALTAQVMVAALRAAARQKPGCYTMIEIPVIDYLPGDREAWIRKLV
notes: expressed in E. coli BL21(DE3), Ni-NTA purified
Consider B1, for which, in “purified protein [1]”, the Km is 14.0 ± 0.6 mM, the Vmax was determined as 0.161 µmol/min/mg, the kcat amounted to 0.093 ± 0.001 s⁻¹ and the kcat/Km was determined as 6.6 M⁻¹ s⁻¹. In the series “purified protein [2]”, the Km is 6.7 ± 0.3 mM, the Vmax came out at 1.81 µmol/min/mg, the kcat came out at 1.05 ± 0.01 s⁻¹ and the kcat/Km worked out at 160 M⁻¹ s⁻¹.

These data come from publication PMC11082193, “Enzymatic synthesis of mono- and trifluorinated alanine enantiomers expands the scope of fluorine biocatalysis” (Communications Chemistry, 2024).
